Our source for the Kd, localizations/s (4 ng DNA transfected) (localizations/s) and localizations/s (20 ng DNA transfected) (localizations/s) values is publication PMC9878614.

Assay [1] addresses F-actin (UniProt P68133). The following applies: cited from earlier work.
Assay [2] addresses F-actin (filamentous actin) (human (endogenous in HEK293)) (UniProt P60709). The experiment in a line: single-molecule localisation microscopy (direct-LIVE-PAINT, TIRF); live HEK293 cells transiently transfected with LifeAct-14-EGFP plasmid (4 ng or 20 ng DNA), imaged 24 h later at 37°C; 488 nm excitation, 50 ms exposure, 2000 frames; transient binding events read as single-molecule localisations.

LifeAct-14 1-14 (from UniProt Q08641): the Kd in assay [1] was 1.2 µM.

With “LifeAct-14-EGFP (from UniProt Q08641 1-14) (peptide)”, in assay [2], the localizations/s (4 ng DNA transfected) (localizations/s) turned out to be 540 and the localizations/s (20 ng DNA transfected) (localizations/s) stood at 1860.
